The source of these data is patent US20250011363A1, “OPTIMIZED SHORTENED PEPTIDE THAT BINDS TO ACETYLCHOLINE RECEPTOR, AND USE THEREOF” (SKINMED CO., LTD., priority 2021, published 2025).

For assay [1], the target named is acetylcholine receptor. The assay is described as follows: SPR, receptor immobilised on chip, peptide at 10 uM.
Assay [2] has as its target acetylcholine receptor. The assay is described as follows: SPR, peptide at 10 uM on immobilized AchR.

RHDARK [6mer-2-996] gave a Binding affinity (RU) in the assay with acetylcholine receptor [1] of 40 RU.
The molecule KCHFRR [6mer-2-991] registered a Binding affinity (RU) in the assay with acetylcholine receptor [1] of 30 RU.
RDTHKR [6mer-2-1004] showed a Binding affinity (RU) in the assay with acetylcholine receptor [2] of 38 RU.
KYCIKK [6mer-2-994]: the Binding affinity (RU) in the assay with acetylcholine receptor [1] was 41 RU.
Turning to KAHNKR [6mer-2-989], the Binding affinity (RU) with acetylcholine receptor [1] came out at 22 RU.
Molecule KDDVRR [6mer-2-970] had a Binding affinity (RU) with acetylcholine receptor [1] of 27 RU.
In the case of KESGKR [6mer-2-980], the Binding affinity (RU) with acetylcholine receptor [1] amounted to 34 RU.
Molecule RAWERK [6mer-2-1031] gave a Binding affinity (RU) in the assay with acetylcholine receptor [2] of 33 RU.
In the assay with acetylcholine receptor [2], RYTPKR [6mer-2-1021] yielded a Binding affinity (RU) of 39 RU.
RPTKKK [6mer-2-1018] yielded a Binding affinity (RU) with acetylcholine receptor [2] of 24 RU.
In the case of KPPDKR [6mer-2-1013], the Binding affinity (RU) with acetylcholine receptor [2] stood at 23 RU.
With RMHAKK [6mer-2-982], the Binding affinity (RU) with acetylcholine receptor [1] is 38 RU.
With RDEMKR [6mer-2-1015], in the assay with acetylcholine receptor [2], the Binding affinity (RU) worked out at 29 RU.
On to RPPMRR [6mer-2-1014], for which the Binding affinity (RU) with acetylcholine receptor [2] is 34 RU.
In turn, KCHDKK [6mer-2-1000] showed a Binding affinity (RU) in the assay with acetylcholine receptor [2] of 41 RU.
Take KAMFRR [6mer-2-972]: the Binding affinity (RU) with acetylcholine receptor [1] was 38 RU.
For the molecule RFHNKR [6mer-2-1024], the Binding affinity (RU) with acetylcholine receptor [2] stood at 37 RU.
In the case of RTTGKK [6mer-2-976], the Binding affinity (RU) in the assay with acetylcholine receptor [1] was 26 RU.
Same read-out and setting: as for KKAFKK [6mer-2-979], the figure is 22 RU; as for RCEIRK [6mer-2-981], 32 RU; as for RMHFRR [6mer-2-992], 33 RU.
In the case of RHDVKK [6mer-2-993], the Binding affinity (RU) with acetylcholine receptor [1] came out at 29 RU.
KCNPRR [6mer-2-1022] returned a Binding affinity (RU) with acetylcholine receptor [2] of 22 RU.
Molecule RHTNKK [6mer-2-1007] had a Binding affinity (RU) with acetylcholine receptor [2] of 42 RU.
The same measure, in the same setting: as for RNTWKK [6mer-2-1019], the figure is 23 RU.
In the assay with acetylcholine receptor [1], REMKRK [6mer-2-977] displayed a Binding affinity (RU) of 30 RU.
As for RATMRR [6mer-2-1006], the Binding affinity (RU) with acetylcholine receptor [2] came out at 30 RU.
Still for that read-out and setting: the figure for KTPVKK [6mer-2-1027] is 32 RU.
In turn, KEPHRR [6mer-2-978] returned a Binding affinity (RU) in the assay with acetylcholine receptor [1] of 28 RU.
On to RCNDKR [6mer-2-1002], for which, in the assay with acetylcholine receptor [2], the Binding affinity (RU) was 42 RU.
For RATIKR [6mer-2-999], the Binding affinity (RU) in the assay with acetylcholine receptor [2] was 31 RU.
With RNHFRK [6mer-2-1039], the Binding affinity (RU) with acetylcholine receptor [2] was 26 RU.
Take KAEFKR [6mer-2-1023]: the Binding affinity (RU) with acetylcholine receptor [2] was determined as 26 RU.
In the assay with acetylcholine receptor [1], KISFKK [6mer-2-997] came in with a Binding affinity (RU) of 30 RU.
Molecule KYAWRK [6mer-2-1040] gave a Binding affinity (RU) with acetylcholine receptor [2] of 36 RU.
Regarding KHSWRR [6mer-2-1034], the Binding affinity (RU) with acetylcholine receptor [2] stood at 38 RU.
In turn, KKTMKK [6mer-2-975] had a Binding affinity (RU) in the assay with acetylcholine receptor [1] of 38 RU.
On to RTWHRR [6mer-2-983], for which the Binding affinity (RU) with acetylcholine receptor [1] is 37 RU.
On to RFDDRR [6mer-2-974], for which the Binding affinity (RU) in the assay with acetylcholine receptor [1] is 38 RU.
For the molecule KNWARR [6mer-2-986], in the assay with acetylcholine receptor [1], the Binding affinity (RU) was 27 RU.
KPEHRR [6mer-2-1028] displayed a Binding affinity (RU) in the assay with acetylcholine receptor [2] of 41 RU.
As for RKKFKK [6mer-2-1001], the Binding affinity (RU) in the assay with acetylcholine receptor [2] is 37 RU.
Take KEMFRK [6mer-2-971]: the Binding affinity (RU) with acetylcholine receptor [1] stood at 29 RU.
Take KHWERK [6mer-2-1038]: in the assay with acetylcholine receptor [2], the Binding affinity (RU) came to 33 RU.
As to KFWEKK [6mer-2-995], the Binding affinity (RU) with acetylcholine receptor [1] is 38 RU.
KPEWKR [6mer-2-1003] came in with a Binding affinity (RU) with acetylcholine receptor [2] of 42 RU.
RPPVKK [6mer-2-1035] had a Binding affinity (RU) with acetylcholine receptor [2] of 39 RU.
Consider KENHRK [6mer-2-1026], for which the Binding affinity (RU) in the assay with acetylcholine receptor [2] was 33 RU.
On the same count and under the same terms, as for KASAKK [6mer-2-1012], the figure is 30 RU.
Molecule REMNKR [6mer-2-985] showed a Binding affinity (RU) in the assay with acetylcholine receptor [1] of 34 RU.
In the assay with acetylcholine receptor [2], RNEEKR [6mer-2-1016] came in with a Binding affinity (RU) of 41 RU.
Molecule KMDEKK [6mer-2-1033] showed a Binding affinity (RU) with acetylcholine receptor [2] of 28 RU.
The same measure, in the same setting: the figure for KINPRK [6mer-2-1009] is 34 RU; for RAPVRR [6mer-2-1017] it is 40 RU.
In turn, KEMWKK [6mer-2-998] yielded a Binding affinity (RU) with acetylcholine receptor [1] of 43 RU.
Consider RAPFKK [6mer-2-1030], for which the Binding affinity (RU) in the assay with acetylcholine receptor [2] was determined as 28 RU.
For KAKNKR [6mer-2-1036], the Binding affinity (RU) with acetylcholine receptor [2] is 25 RU.
On the same count and under the same terms, the figure for KEEFKK [6mer-2-1029] is 40 RU; for RANHKK [6mer-2-1010] it is 36 RU.
As for RKKMKR [6mer-2-990], the Binding affinity (RU) with acetylcholine receptor [1] was determined as 41 RU.
Take RAEFRR [6mer-2-1011]: the Binding affinity (RU) with acetylcholine receptor [2] turned out to be 22 RU.
KHDKKR [6mer-2-1020]: the Binding affinity (RU) with acetylcholine receptor [2] is 21 RU.
As to KDMWKK [6mer-2-984], the Binding affinity (RU) with acetylcholine receptor [1] amounted to 43 RU.
For the molecule RAWKKR [6mer-2-1008], in the assay with acetylcholine receptor [2], the Binding affinity (RU) was determined as 38 RU.
In the assay with acetylcholine receptor [1], KCPIKK [6mer-2-973] returned a Binding affinity (RU) of 41 RU.
On the same count and under the same terms, the figure for RCHPKK [6mer-2-987] is 22 RU.
With RCSHRR [6mer-2-1025], the Binding affinity (RU) with acetylcholine receptor [2] amounted to 39 RU.
Same read-out and setting: as for KIHWKK [6mer-2-1037], the figure is 26 RU.
RFKARR [6mer-2-1005] showed a Binding affinity (RU) with acetylcholine receptor [2] of 23 RU.
For the molecule KETVKR [6mer-2-1032], in the assay with acetylcholine receptor [2], the Binding affinity (RU) was determined as 31 RU.
For KMCEKK [6mer-2-988], the Binding affinity (RU) in the assay with acetylcholine receptor [1] worked out at 41 RU.
